Measurements taken from patent US20070077212A1, “Protein with activity of hydrolyzing amylopectin, starch, glycogen and amylose, gene encoding the same, cell expressing the same, and production method thereof” (LIFENZA CO., LTD., priority 2004, published 2007).
Entries after “also recorded” stand apart in the source; their conditions may differ.

Assays:
Assay type in all cases: biochemical
[1] = Relative substrate specificity of LSA enzyme: amylose
Description: (§1) The reducing value of the carbohydrolase was determined by a DNS (3,5-dinitrosalicylic acid) method in combination with a copper-bicinchoninate method. That is, 100 μl of copper-bicinchoninate was added to 100 μl of an enzyme solution, and allowed to react at 80C. for 35 min, followed by being cooled for about 15 min. Absorbance was measured at 560 nm.

[2] = TLC analysis of reaction with maltooligosaccharide series; conditions: mixture of maltooligosaccharide series
Description: FIG. 8 is a photograph of a TLC result showing the enzymatic activity of the LSA of the present invention in which starch samples (1% w/v) are analyzed, along with maltodextrin (Mn), before and after being hydrolyzed by the enzyme (lanes 1 and 2 in panel A, respectively) and maltooligosaccharide samples (1% w/v) are analyzed after purified LSA is allowed to react with a series of maltooligosaccharides including G1 (glucose) to G7 (maltoheptaose) (lanes 1 to 7 in panel B, respectively).
(§2) Subsequently, the malto oligosaccharides were degraded into maltopentaose and lower oligosaccharides.

[3] = Relative substrate specificity of LSA enzyme: amylodextrin
Description: as §1

[4] = Effect of metal ions, chelating agents and denaturants on LSA enzyme activity
Description: as §1
Effects of EDTA, EGTA and metal ions on enzyme activity were measured. EDTA and EGTA were each used at a final concentration of 1 mM. As for metal ions, they included ZnCl2, CuS04, CaCl2 and MgCl2 and were used at a final concentration of 5 mM. The enzyme activity was also measured in the presence of dodesyl sulfate (SDS, 0.1%, 0.5%, 1%, 2%), urea (2M), acetone (0-80%) and ethanol (0-70%). For the measurement, the enzyme was allowed to react at 37° C. for 30 min with 2% starch as a substrate.

[5] = Relative substrate specificity of LSA enzyme: dextran
Description: as §1

[6] = Relative substrate specificity of LSA enzyme: glycogen
Description: as §1

[7] = Assay for optimal pH and temperature and stability of enzyme
Description: as §1
The enzyme LSA was assayed for optimal pH by measuring reaction rates in the range of pH 3-9 at intervals of pH 1.0. For this purpose, 2OmM citrate phosphate buffer (pH 4.0), citrate/phosphate buffer (pH 5-6) and sodium phosphate buffer (pH 7-9) were used. After reaction at 37° C. for […], the carbohydrolase activity of the enzyme was determined by a DNS method. Also, the pH stability of the enzyme was measured after the enzyme was added to each buffer and allowed to stand for 3 hours at 22° C.
The optimal temperature of the enzyme was determined by measuring the reaction rates of the enzyme which had been allowed to stand for 30 min at various temperatures (20-80° C., 10C. interval). […] 1% (w/v) starch was used as a substrate in determining the activity and stability of the enzyme.

[8] = Activity staining on starch-containing PAGE gel; conditions: 30 min at 37° C.
Description: For sodium dodecyl sulfate-polyacrylamide gel electrophoresis (SDS-PAGE), protein samples were loaded onto 10% polyacrylamide gel in Tris-glycine buffer (pH 8.8). The polyacrylamide gel contained 1% starch in order to detect whether the protein samples could degrade starch polysaccharide. After completion of the electrophoresis, SDS was removed by washing the gel with 50 mM Tris-HCl buffer (pH 8.0) and a 20% 2-propanol solution for 1 hour. The gel was immersed in a reaction buffer (50 mM sodium acetate, 5 mM CaCl2, pH 5) at 37° C. for […] and then in an iodide solution (0.3% iodide, 3% potassium iodide) for 10 min, and washed with distilled water. The starch hydrolyzing activity was identified by the appearance of a clear zone against a brown background.
Following IPTG induction in E. coli, the cells were harvested, and disrupted by sonication. Proteins were purified using His-tagged affinity column and analyzed by SDS-PAGE (10%) (FIG. 3, lane 1). The band for the mainly expressed protein corresponded to 73 kDa (LSA+His-tag). To examine the ability of the purified protein to degrade polysaccharides such as starch, electrophoresis was carried out using a PAGE gel containing starch. After completion of the electrophoresis, the gel was allowed to stand for 30 min at 37° C. and stained with an iodine solution. […]

[9] = Relative substrate specificity of LSA enzyme: amylopectin
Description: as §1

[10] = TLC analysis of starch hydrolysis products; conditions: 2% starch
From the text: as §2

[11] = Relative substrate specificity of LSA enzyme: pullulan
Description: as §1

[12] = Relative substrate specificity of LSA enzyme: alpha-cyclodextrin
Description: as §1

[13] = Relative substrate specificity of LSA enzyme: starch
Description: as §1

B1: LSA: carbohydrolase derived from Lipomyces starkeyi, amino acid sequence SEQ. ID. No. 1, expressed in E. coli; hydrolyzes amylopectin, starch, glycogen and amylose (protein)
chain: MLLINFFIAVLGVISLSPIVVARYILRRDCTTVTVLSSPESVTSSNHVELASHEMCDSTLSASLYIYNDDYDKIVTLYYLTSSGTTGSVTASYSSSLSNNWELWSLSAPAADAVEITGASYVDSDASATYATSFDIPLTTTTTSSSSASATSTSSLTTTSSVSISVSVPTGTAANWRGRAIYEIVTDRFARTDGSTTYLCDVTDRVYCGGSYEGIINMLDYIEGMGFTAIWISPIVENIPDDTGYGYAYHGYWMKDIFALNTNFGTADDLIALATELHNRGMYLMVDIVVNHFAFSGSHADVDYSEYFPYSSEDYFHSFCWITDYSNETNVEQCWLGDDTVPLVDVNTELDTVKSEYQSWVEELIANYSIDGLRIDTVKHVEMDFWAPFEEAAGIYAVGEVFDGDPSYTCPYEENLDGVLNYPVYYPVVSAFESVSGSVSSLVDMIDTLKSECTDTTLLGSFLENEDNPRFPSYTSDESLIKNAIAFTMLSDGIPIIYYGEEQGLNGGNDPYNREALWLTGYSTTSTFYKYIASLNEIRNEAIYKDDTYLTYENWVIYSDSTTIAMRKGFTGNEIITVLSNLGTSGSSYTLTLSNTGYTASSVVYEILTCTAVTVDSSGNLAVPMSSGLPKVFYEESQLVGSGICSM
modifications: E. coli BL21(DE3)pLysS
notes: ID; No. 1, expressed in E. coli; hydrolyzes amylopectin, starch, glycogen and amylose
degradation of amylose (in words) [1]: weakly | Relative Activity (%) ([1]; substrate Amylose, relative to starch): 41% | degradation products of G6 [2]: G2+G4 or into G3+G3 | hydrolysis of G2 [2]: did not hydrolyze | hydrolysis of G3 [2]: did not hydrolyze | degradation of amylodextrin (in words) [3]: weakly | Relative Activity (%) ([3]; substrate Amylodextrin, relative to starch): 17% | effect on enzyme activity ([4]; 1 mM EDTA): inhibited | increase of starch degradation activity ([4]; 5 mM Ca+): about 315% | effect on starch degradation activity ([4]; 5 mM Cu^2+): inhibited | increase of starch degradation activity ([4]; 5 mM Mg^2+): ~220% | increase in activity ([4]; 10-20% ethanol solution): 1.25-1.33 fold | increase in activity ([4]; 10-40% acetone): 1.03-1.22 fold | activity relative to optimal activity ([4]; 60% acetone): lower than 50% | activity relative to optimal activity ([4]; 60% ethanol): lower than 50% | Relative Activity (%) ([4]; Acetone 20%): 122% | Relative Activity (%) ([4]; Acetone 30%): 115% | Relative Activity (%) ([4]; CaCl2 5 mM): 315% | Relative Activity (%) ([4]; CaCl2 + EDTA 5 mM/1 mM): 185% | Relative Activity (%) ([4]; CuSO4 5 mM): 20% | Relative Activity (%) ([4]; CuSO4 + EDTA 5 mM/1 mM): 12% | Relative Activity (%) ([4]; EDTA 1 mM): 46% | Relative Activity (%) ([4]; EGTA 1 mM): 105% | effect on enzyme activity ([4]; EGTA (1 mM; EGTA-containing solution)): not inhibited; also recorded: not influenced | Relative Activity (%) ([4]; MgCl2 5 mM): 220% | Relative Activity (%) ([4]; MgCl2 + EDTA 5 mM/1 mM): 129% | effect on starch degradation activity ([4]; SDS): completely inhibited | Relative Activity (%) ([4]; SDS 0.1%): 66% | Relative Activity (%) ([4]; SDS 0.5%): 49% | Relative Activity (%) ([4]; SDS 1%): 24% | Relative Activity (%) ([4]; SDS 2%): 12% | Relative Activity (%) ([4]; Urea 2M): 115% | effect on starch degradation activity ([4]; acetone): increased | Relative Activity (%) ([4]; additive: None, 2% starch, 37° C., 30 min): 100% | effect on starch degradation activity ([4]; urea): increased | degradation of dextran (in words) [5]: degrade; also recorded: weakly | Relative Activity (%) ([5]; substrate Dextran, relative to starch): 4% | degradation of glycogen (in words) [6]: strongly | Relative Activity (%) ([6]; substrate Glycogen, relative to starch): 80% | optimum pH [7]: 6 pH | pH range in which activity is 90% of its maximum [7]: 5-8 pH | pH range in which amylase activity is kept stably [7]: 5-8 pH | temperature of optimal activity ([7]; 1% (w/v) starch): 40 °C | temperature range of stability ([7]; 1% (w/v) starch): 20-50 °C | activity after incubation, relative to stable temperatures ([7]; incubation at 60° C. for 3 hours): 70% | starch degradation on gel, iodine staining [8]: clear zone | degradation of amylopectin (in words) [9]: strongly | Relative Activity (%) ([9]; substrate Amylopectin, relative to starch): 141% | hydrolysis products, early stage of reaction [10]: oligosaccharides larger than maltopentaose were produced | hydrolysis products, final [10]: maltotriose and maltotetraose were predominant | degradation of pullulan (in words) [11]: degrade; also recorded: weakly | Relative Activity (%) ([11]; substrate Pullulan, relative to starch): 3% | degradation of a-cyclodextrin (in words) [12]: degrade; also recorded: weakly | Relative Activity (%) ([12]; substrate alpha-CD, relative to starch): 4% | degradation of starch (soluble) (in words) [13]: strongly | Relative Activity (%) ([13]; substrate Starch): 100%
